According to paper PMC13181761, “New Analogs of the Compstatin Family of Clinical Complement Inhibitors with Low Picomolar Target Affinity” (Journal of Medicinal Chemistry, 2026):
Bridges are numbered along the chain shown (N, C = ends). Where no end group is shown, it is not given here. [ ]: non-standard residue; d: D form. Trp(1-Me) = Cn1cc(C[C@H](N)C(=O)O)c2ccccc21; Nva(3-Et) = CCC(CC)[C@H](N)C(=O)O; Asu = N[C@@H](CCCCCC(=O)O)C(=O)O; NMeI = CC[C@H](C)[C@H](NC)C(=O)O; Sar = CNCC(=O)O

B1: Cp01 Val3Nva analog (peptide)
chain: ICXWQDWGAHRCT
modifications: not fully specified; norvaline (Nva) at position 3; acetyl at position 0; cyclic (cyclized by H2O2)
B2: Cp01 Asp6Asu analog (peptide)
chain: Ac-ICVWQ[Asu]WGAHRCT
modifications: disulfide 2-12 (inferred)
B3: Cp01 W7Bta analog (peptide)
chain: ICVWQDXGAHRCT
modifications: (3-benzothienyl)alanine (Bta) at position 7; acetyl at position 0; cyclic (cyclized by H2O2)
B4: Cp01 Gly8D-Ala analog (peptide)
chain: Ac-ICVWQDW[dA]AHRCT
modifications: disulfide 2-12 (inferred)
B5: Cp40 Dea3 analog (peptide)
chain: [dY]IC[Nva(3-Et)][Trp(1-Me)]QDW[Sar]AHRC[NMeI]
modifications: disulfide 3-13 (inferred)
B6: Cp01 Val3Tbg analog (peptide)
chain: ICXWQDWGAHRCT
modifications: α-tert-butyl-glycine (Tbg) at position 3; acetyl at position 0; cyclic (cyclized by H2O2)

Tests used:
human C3b [1] = target: T1, human C3b (human, UniProt P01024 749-1663); assay: SPR; Biacore T200; human C3b amine-coupled; multicycle kinetics, serial 2-fold dilutions of peptide, 120 s injection, 180 s dissociation, regeneration 1 M NaCl; 25 °C, HBST pH 7.4; Langmuir 1:1 fit, KD = kd/ka; mean of 3 experiments; details: both partners purified
T1 construct: Complement C3 beta chain, human; cut product of the C3 precursor; C3b alpha chain (C3 alpha chain after release of C3a), human; Two-chain fragment of C3; amine-coupled to the chip in SPR, free in the cryo-EM sample; also called hC3b; plasma-purified C3b; source: bought: Complement Technology (plasma-purified)

human C3b [2] = target: T1, human C3b; assay: SPR; Biacore T200; human C3b amine-coupled; single-cycle kinetics, 5 increasing concentrations (0.5-40 nM), final dissociation 100-240 min; 25 °C, HBST pH 7.4; global Langmuir 1:1 fit; mean of 3 experiments; details: both partners purified

| Binder | Kd (human C3b [1]) | also measured |
| --- | --- | --- |
| B1 | 1660 nM | – |
| B2 | 2080 nM | koff (human C3b [1]): 0.23 s⁻¹; kon (human C3b [1]): 120000 M⁻¹ s⁻¹ |
| B3 | > 16000 nM | – |
| B4 | > 16000 nM | – |
| B5 | – | Kd (human C3b [2]): 13.6 nM; koff (human C3b [2]): 0.006 s⁻¹; kon (human C3b [2]): 430000 M⁻¹ s⁻¹ |
| B6 | 103 nM | – |
